In publication PMC5929103 one finds Ki and Kd data, which are given here for 5 substances.

Assay [1] deals with mesotrypsin (Homo sapiens) (UniProt P35030). The note with it: cited from earlier work.
Assay [2] has as its target human kallikrein-6, active (human) (UniProt Q92876). The assay can be described thus: enzyme inhibition kinetics.
In assay [3] the target is yeast-displayed APPI_(M17G/I18F/F34V) (human). Kind of assay: flow cytometry on cells. On the technique in general: In flow cytometry, cells or beads pass a laser one at a time.

Sequence of UniProt P35030 (P35030 2-304): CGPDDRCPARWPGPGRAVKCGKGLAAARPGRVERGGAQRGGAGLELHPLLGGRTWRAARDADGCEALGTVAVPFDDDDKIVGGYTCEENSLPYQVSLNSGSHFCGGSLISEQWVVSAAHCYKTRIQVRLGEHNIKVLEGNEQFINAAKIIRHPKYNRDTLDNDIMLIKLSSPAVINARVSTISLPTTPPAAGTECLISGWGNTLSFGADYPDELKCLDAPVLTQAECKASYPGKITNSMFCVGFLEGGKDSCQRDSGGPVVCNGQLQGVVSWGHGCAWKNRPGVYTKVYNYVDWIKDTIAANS

For orientation: Ki means the equilibrium dissociation constant of an inhibitor or competing ligand from its target. Regarding “APPI Kunitz domain (from UniProt P05067)”, in assay [1], the Ki was 140 nM.
With “APPI_(P13W/M17G/I18F/F34V), soluble form (designed binder)”, the Ki in assay [2] came to 7.6 nM.
The term Kd denotes the concentration at which binding is half-saturated. Low values mean tighter binding, high ones weaker binding. For the substance “catalytically inactive human anionic trypsin S195A, labelled with DyLight 650 (enzyme)”, in assay [3], the Kd was 42 nM.
On the same count and under the same terms, for “catalytically inactive human cationic trypsin S195A, labelled with DyLight 650 (enzyme)” the value was 31 nM.
As to “catalytically inactive human mesotrypsin S195A, labelled with DyLight 488 (enzyme)”, the Kd in assay [3] was determined as 26 nM.
